Reference: publication PMC7316778 (Nature Communications, 2020)

Target: CSK (Homo sapiens, UniProt P41240)
Assay: PamChip microarray peptide phosphorylation
Conditions: peptide substrate phosphorylated by CSK

Sequence of CSK (P41240 whole entry): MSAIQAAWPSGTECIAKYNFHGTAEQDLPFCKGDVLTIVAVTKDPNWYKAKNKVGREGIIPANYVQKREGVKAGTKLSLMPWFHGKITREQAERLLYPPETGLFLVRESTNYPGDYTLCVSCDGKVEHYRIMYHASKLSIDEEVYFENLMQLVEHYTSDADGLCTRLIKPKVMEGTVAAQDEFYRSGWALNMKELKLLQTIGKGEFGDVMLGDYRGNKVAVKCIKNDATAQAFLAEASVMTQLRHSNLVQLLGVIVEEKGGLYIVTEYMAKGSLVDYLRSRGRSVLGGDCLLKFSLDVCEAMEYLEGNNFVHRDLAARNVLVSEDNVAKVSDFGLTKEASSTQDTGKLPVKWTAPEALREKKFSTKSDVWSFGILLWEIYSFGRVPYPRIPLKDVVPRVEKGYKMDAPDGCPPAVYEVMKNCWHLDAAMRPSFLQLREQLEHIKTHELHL

Substance | Relative phosphorylation (% of highest signal)
STA5A_687_699 (LAKAVDGYVKPQI; UniProt P42229 687-699, looked up, fragment) | -1.3 % of highest signal
VGFR2_944_956 (RFRQGKDYVGAIP; UniProt P35968 944-956, looked up, fragment) | -0.8 % of highest signal
MK01_198_210 (IMLNSKGYTKSID; UniProt P28482 198-210, looked up, fragment) | -0.8 % of highest signal
VGFR1_1235_1247 (ATSMFDDYQGDSS; UniProt P17948 1235-1247, looked up, fragment) | -0.5 % of highest signal
ODBA_340_352_D340K (KDSSAYRSVDEVN; UniProt P12694 340-352, looked up, variant D340K) | 10.4 % of highest signal
NPT2A_501_513 (AKALGKRTAKYRW; UniProt Q06495 501-513, looked up, fragment) | -0.4 % of highest signal
VGFR1_1320_1332_C1320K/C1321K (KKSPPPDYNSVVL; UniProt P17948 1320-1332, looked up, variant C1320K C1321K) | -0.847 % of highest signal
VGFR1_1046_1058_Y1048F (DIFKNPDYVRKGD; UniProt P17948 1046-1058, looked up, variant Y1048F) | -0.9 % of highest signal
EPHA2_581_593 (QLKPLKTYVDPHT; UniProt P29317 581-593, looked up, fragment) | -0.569 % of highest signal

Target: LYN (Homo sapiens, UniProt P07948)
Sequence (P07948 whole entry): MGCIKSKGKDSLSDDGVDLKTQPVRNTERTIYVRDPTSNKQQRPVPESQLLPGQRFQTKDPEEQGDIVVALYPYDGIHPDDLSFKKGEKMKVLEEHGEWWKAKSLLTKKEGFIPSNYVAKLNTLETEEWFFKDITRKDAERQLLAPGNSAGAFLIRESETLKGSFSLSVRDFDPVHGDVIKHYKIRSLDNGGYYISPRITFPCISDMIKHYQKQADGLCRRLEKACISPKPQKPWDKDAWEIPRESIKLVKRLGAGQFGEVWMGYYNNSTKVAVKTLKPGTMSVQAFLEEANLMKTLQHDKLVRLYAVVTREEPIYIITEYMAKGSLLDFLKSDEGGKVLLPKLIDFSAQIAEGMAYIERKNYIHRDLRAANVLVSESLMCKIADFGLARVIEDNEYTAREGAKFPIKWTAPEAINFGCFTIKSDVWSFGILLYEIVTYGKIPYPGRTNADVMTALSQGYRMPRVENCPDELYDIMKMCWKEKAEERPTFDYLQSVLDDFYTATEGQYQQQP
Assay: PamChip microarray peptide phosphorylation
Conditions: peptide substrate phosphorylated by LYN

Substance | Relative phosphorylation (% of highest signal)
STA5A_687_699 (LAKAVDGYVKPQI; UniProt P42229 687-699, looked up, fragment) | -0.4 % of highest signal
VGFR2_944_956 (RFRQGKDYVGAIP; UniProt P35968 944-956, looked up, fragment) | -0.364 % of highest signal
MK01_198_210 (IMLNSKGYTKSID; UniProt P28482 198-210, looked up, fragment) | -0.184 % of highest signal
VGFR1_1235_1247 (ATSMFDDYQGDSS; UniProt P17948 1235-1247, looked up, fragment) | -0.0433 % of highest signal
ODBA_340_352_D340K (KDSSAYRSVDEVN; UniProt P12694 340-352, looked up, variant D340K) | 0.112 % of highest signal
NPT2A_501_513 (AKALGKRTAKYRW; UniProt Q06495 501-513, looked up, fragment) | -0.318 % of highest signal
VGFR1_1320_1332_C1320K/C1321K (KKSPPPDYNSVVL; UniProt P17948 1320-1332, looked up, variant C1320K C1321K) | -0.28 % of highest signal
VGFR1_1046_1058_Y1048F (DIFKNPDYVRKGD; UniProt P17948 1046-1058, looked up, variant Y1048F) | -0.0478 % of highest signal
EPHA2_581_593 (QLKPLKTYVDPHT; UniProt P29317 581-593, looked up, fragment) | -0.186 % of highest signal

Target: SYK (Homo sapiens, UniProt P43405)
Assay: PamChip microarray peptide phosphorylation
Conditions: peptide substrate phosphorylated by SYK

Substance | Relative phosphorylation (% of highest signal)
STA5A_687_699 (LAKAVDGYVKPQI; UniProt P42229 687-699, looked up, fragment) | -1.9 % of highest signal
VGFR2_944_956 (RFRQGKDYVGAIP; UniProt P35968 944-956, looked up, fragment) | 0.9 % of highest signal
MK01_198_210 (IMLNSKGYTKSID; UniProt P28482 198-210, looked up, fragment) | -1.2 % of highest signal
VGFR1_1235_1247 (ATSMFDDYQGDSS; UniProt P17948 1235-1247, looked up, fragment) | 17.6 % of highest signal
ODBA_340_352_D340K (KDSSAYRSVDEVN; UniProt P12694 340-352, looked up, variant D340K) | 1.5 % of highest signal
NPT2A_501_513 (AKALGKRTAKYRW; UniProt Q06495 501-513, looked up, fragment) | -0.846 % of highest signal
VGFR1_1320_1332_C1320K/C1321K (KKSPPPDYNSVVL; UniProt P17948 1320-1332, looked up, variant C1320K C1321K) | 4.3 % of highest signal
VGFR1_1046_1058_Y1048F (DIFKNPDYVRKGD; UniProt P17948 1046-1058, looked up, variant Y1048F) | 1.1 % of highest signal
EPHA2_581_593 (QLKPLKTYVDPHT; UniProt P29317 581-593, looked up, fragment) | -1.0 % of highest signal

Target: ABL1 (Homo sapiens, UniProt P00519)
Sequence (P00519 whole entry): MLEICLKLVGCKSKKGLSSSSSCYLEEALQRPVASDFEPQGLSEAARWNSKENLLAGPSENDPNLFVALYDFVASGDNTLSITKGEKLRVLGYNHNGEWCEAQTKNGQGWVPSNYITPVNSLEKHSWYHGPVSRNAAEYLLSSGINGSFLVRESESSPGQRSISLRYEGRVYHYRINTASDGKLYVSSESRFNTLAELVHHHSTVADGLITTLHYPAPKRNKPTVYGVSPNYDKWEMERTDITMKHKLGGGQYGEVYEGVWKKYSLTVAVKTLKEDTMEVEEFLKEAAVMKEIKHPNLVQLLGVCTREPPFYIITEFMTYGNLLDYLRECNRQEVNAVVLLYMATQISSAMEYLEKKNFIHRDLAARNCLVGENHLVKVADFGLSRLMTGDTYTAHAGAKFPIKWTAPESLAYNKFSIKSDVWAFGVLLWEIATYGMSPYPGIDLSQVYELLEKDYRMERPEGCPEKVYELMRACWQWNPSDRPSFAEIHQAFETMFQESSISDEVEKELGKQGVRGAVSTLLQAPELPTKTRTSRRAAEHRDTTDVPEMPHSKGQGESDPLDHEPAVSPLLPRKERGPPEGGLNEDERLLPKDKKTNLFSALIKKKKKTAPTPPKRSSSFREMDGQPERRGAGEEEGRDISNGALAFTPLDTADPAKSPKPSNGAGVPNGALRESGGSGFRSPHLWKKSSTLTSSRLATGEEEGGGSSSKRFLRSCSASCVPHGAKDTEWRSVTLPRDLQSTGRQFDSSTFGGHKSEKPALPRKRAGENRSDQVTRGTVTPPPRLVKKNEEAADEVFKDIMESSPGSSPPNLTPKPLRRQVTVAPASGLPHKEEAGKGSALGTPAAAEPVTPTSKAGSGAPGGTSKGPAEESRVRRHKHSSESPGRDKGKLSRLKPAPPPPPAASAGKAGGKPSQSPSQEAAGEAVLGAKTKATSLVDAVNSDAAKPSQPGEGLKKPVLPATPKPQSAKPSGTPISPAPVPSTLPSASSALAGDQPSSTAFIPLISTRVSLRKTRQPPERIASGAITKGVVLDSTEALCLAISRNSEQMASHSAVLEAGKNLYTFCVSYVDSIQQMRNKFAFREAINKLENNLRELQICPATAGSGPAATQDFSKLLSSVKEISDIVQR
Assay: PamChip microarray peptide phosphorylation
Conditions: peptide substrate phosphorylated by ABL1

Substance | Relative phosphorylation (% of highest signal)
STA5A_687_699 (LAKAVDGYVKPQI; UniProt P42229 687-699, looked up, fragment) | -0.439 % of highest signal
VGFR2_944_956 (RFRQGKDYVGAIP; UniProt P35968 944-956, looked up, fragment) | -0.378 % of highest signal
MK01_198_210 (IMLNSKGYTKSID; UniProt P28482 198-210, looked up, fragment) | -0.5 % of highest signal
VGFR1_1235_1247 (ATSMFDDYQGDSS; UniProt P17948 1235-1247, looked up, fragment) | -0.543 % of highest signal
ODBA_340_352_D340K (KDSSAYRSVDEVN; UniProt P12694 340-352, looked up, variant D340K) | 5.2 % of highest signal
NPT2A_501_513 (AKALGKRTAKYRW; UniProt Q06495 501-513, looked up, fragment) | -0.2 % of highest signal
VGFR1_1320_1332_C1320K/C1321K (KKSPPPDYNSVVL; UniProt P17948 1320-1332, looked up, variant C1320K C1321K) | -0.0535 % of highest signal
VGFR1_1046_1058_Y1048F (DIFKNPDYVRKGD; UniProt P17948 1046-1058, looked up, variant Y1048F) | -0.449 % of highest signal
EPHA2_581_593 (QLKPLKTYVDPHT; UniProt P29317 581-593, looked up, fragment) | -0.273 % of highest signal

Target: T1, FES^WT (Homo sapiens, UniProt P07332)
T1 construct: human FES cDNA encoding residues 448–822 or human FER cDNA encoding residues 448–820 was amplified by PCR; made in house; host or cells: E. coli BL21(DE3), co-expressing YopH phosphatase
T1 sequence (P07332 448-822): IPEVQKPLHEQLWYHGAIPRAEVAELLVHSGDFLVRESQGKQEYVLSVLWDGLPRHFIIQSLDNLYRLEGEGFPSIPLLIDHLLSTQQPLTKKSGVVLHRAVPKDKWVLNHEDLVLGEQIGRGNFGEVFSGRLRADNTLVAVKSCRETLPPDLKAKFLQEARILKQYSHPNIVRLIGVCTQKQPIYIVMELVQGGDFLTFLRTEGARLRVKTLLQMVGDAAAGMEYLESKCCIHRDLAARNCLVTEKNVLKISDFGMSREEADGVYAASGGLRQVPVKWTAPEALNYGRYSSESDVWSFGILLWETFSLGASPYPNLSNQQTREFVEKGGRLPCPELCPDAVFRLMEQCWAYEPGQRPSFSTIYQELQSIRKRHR
Assay: PamChip microarray peptide phosphorylation
Format: biochemical
Conditions: peptide substrate phosphorylated by FES - WT

Substance | Relative phosphorylation (% of highest signal)
STA5A_687_699 (LAKAVDGYVKPQI; UniProt P42229 687-699, looked up, fragment) | -0.46 % of highest signal
VGFR2_944_956 (RFRQGKDYVGAIP; UniProt P35968 944-956, looked up, fragment) | 0.741 % of highest signal
MK01_198_210 (IMLNSKGYTKSID; UniProt P28482 198-210, looked up, fragment) | -0.6 % of highest signal
VGFR1_1235_1247 (ATSMFDDYQGDSS; UniProt P17948 1235-1247, looked up, fragment) | -0.11 % of highest signal
ODBA_340_352_D340K (KDSSAYRSVDEVN; UniProt P12694 340-352, looked up, variant D340K) | -0.457 % of highest signal
NPT2A_501_513 (AKALGKRTAKYRW; UniProt Q06495 501-513, looked up, fragment) | 0.553 % of highest signal
VGFR1_1320_1332_C1320K/C1321K (KKSPPPDYNSVVL; UniProt P17948 1320-1332, looked up, variant C1320K C1321K) | 2.0 % of highest signal
VGFR1_1046_1058_Y1048F (DIFKNPDYVRKGD; UniProt P17948 1046-1058, looked up, variant Y1048F) | -0.452 % of highest signal
EPHA2_581_593 (QLKPLKTYVDPHT; UniProt P29317 581-593, looked up, fragment) | -0.0404 % of highest signal

Target: FGR (Homo sapiens, UniProt P09769)
Assay: PamChip microarray peptide phosphorylation
Conditions: peptide substrate phosphorylated by FGR

Substance | Relative phosphorylation (% of highest signal)
STA5A_687_699 (LAKAVDGYVKPQI; UniProt P42229 687-699, looked up, fragment) | -3.6 % of highest signal
VGFR2_944_956 (RFRQGKDYVGAIP; UniProt P35968 944-956, looked up, fragment) | -1.0 % of highest signal
MK01_198_210 (IMLNSKGYTKSID; UniProt P28482 198-210, looked up, fragment) | -3.8 % of highest signal
VGFR1_1235_1247 (ATSMFDDYQGDSS; UniProt P17948 1235-1247, looked up, fragment) | 0.9 % of highest signal
ODBA_340_352_D340K (KDSSAYRSVDEVN; UniProt P12694 340-352, looked up, variant D340K) | -0.358 % of highest signal
NPT2A_501_513 (AKALGKRTAKYRW; UniProt Q06495 501-513, looked up, fragment) | -2.1 % of highest signal
VGFR1_1320_1332_C1320K/C1321K (KKSPPPDYNSVVL; UniProt P17948 1320-1332, looked up, variant C1320K C1321K) | -2.8 % of highest signal
VGFR1_1046_1058_Y1048F (DIFKNPDYVRKGD; UniProt P17948 1046-1058, looked up, variant Y1048F) | -2.7 % of highest signal
EPHA2_581_593 (QLKPLKTYVDPHT; UniProt P29317 581-593, looked up, fragment) | -3.2 % of highest signal
